From US12679878B2, “CRF2 receptor agonists and their use in therapy” (SANOFI, priority 2020, dated 2026) come the findings set out here.

Starred links: 1 amine or outer side, 2 acyl side, 3 side chain; linkers in the order of their positions; H or OH if unused. Non-standard residues stand in square brackets, D forms with d. Groups on a side chain read outwards from the residue. No end group written: not given here. *: point of attachment. C18 diacid = O=C(O)CCCCCCCCCCCCCCCCC(=O)*; γGlu = O=C(O)[C@H](CCC(=O)[*:2])N[*:1]; Palmitoyl = CCCCCCCCCCCCCCCC(=O)*; AEEA = NCCOCCOCC(=O)O; Aib = CC(C)(N)C(=O)O

The target in the test is human corticotropin-releasing factor 2α (CRF2 α receptor) (human), Q13324. In words: cell-based or functional assay.
Chain of human corticotropin-releasing factor 2α (CRF2 α receptor) (human), Q13324 (Q13324 20-411): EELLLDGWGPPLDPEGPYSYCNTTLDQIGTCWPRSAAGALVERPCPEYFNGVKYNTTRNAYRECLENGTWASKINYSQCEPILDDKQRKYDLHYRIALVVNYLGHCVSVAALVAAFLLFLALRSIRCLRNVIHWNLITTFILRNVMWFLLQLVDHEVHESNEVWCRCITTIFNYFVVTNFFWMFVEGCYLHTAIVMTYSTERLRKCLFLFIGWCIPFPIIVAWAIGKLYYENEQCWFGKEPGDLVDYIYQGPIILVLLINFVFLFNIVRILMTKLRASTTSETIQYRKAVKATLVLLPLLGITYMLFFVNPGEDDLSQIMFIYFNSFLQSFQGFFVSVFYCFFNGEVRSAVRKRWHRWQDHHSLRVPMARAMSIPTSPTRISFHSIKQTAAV

B1: SEQ ID NO: 159 (peptide)
peptide: Ac-IVLSLD[dV]PIKLK([AEEA-AEEA-γGlu-C18 diacid])QILLEQERQE[Aib]QREQAEKNKQILEQV-NH2
SMILES: CC[C@H](C)[C@H](NC(C)=O)C(=O)N[C@H](C(=O)N[C@@H](CC(C)C)C(=O)N[C@@H](CO)C(=O)N[C@@H](CC(C)C)C(=O)N[C@@H](CC(=O)O)C(=O)N[C@@H](C(=O)N1CCC[C@H]1C(=O)N[C@H](C(=O)N[C@@H](CCCCN)C(=O)N[C@@H](CC(C)C)C(=O)N[C@@H](CCCCNC(=O)COCCOCCNC(=O)COCCOCCNC(=O)CC[C@H](NC(=O)CCCCCCCCCCCCCCCCC(=O)O)C(=O)O)C(=O)N[C@@H](CCC(N)=O)C(=O)N[C@H](C(=O)N[C@@H](CC(C)C)C(=O)N[C@@H](CC(C)C)C(=O)N[C@@H](CCC(=O)O)C(=O)N[C@@H](CCC(N)=O)C(=O)N[C@@H](CCC(=O)O)C(=O)N[C@@H](CCCNC(=N)N)C(=O)N[C@@H](CCC(N)=O)C(=O)N[C@@H](CCC(=O)O)C(=O)NC(C)(C)C(=O)N[C@@H](CCC(N)=O)C(=O)N[C@@H](CCCNC(=N)N)C(=O)N[C@@H](CCC(=O)O)C(=O)N[C@@H](CCC(N)=O)C(=O)N[C@@H](C)C(=O)N[C@@H](CCC(=O)O)C(=O)N[C@@H](CCCCN)C(=O)N[C@@H](CC(N)=O)C(=O)N[C@@H](CCCCN)C(=O)N[C@@H](CCC(N)=O)C(=O)N[C@H](C(=O)N[C@@H](CC(C)C)C(=O)N[C@@H](CCC(=O)O)C(=O)N[C@@H](CCC(N)=O)C(=O)N[C@H](C(N)=O)C(C)C)[C@@H](C)CC)[C@@H](C)CC)[C@@H](C)CC)C(C)C)C(C)C
As for B1, the EC50 [nM], 0% HSA was 1.27 nM and the EC50 [nM], 0.1% HSA was determined as 27.4 nM.

B2: SEQ ID NO: 157 (peptide)
peptide: Ac-IVLSLD[dV]PIKLK([AEEA-AEEA-γGlu-C18 diacid])QILLEQARQK[Aib]QREQAEKNKQILEQV-NH2
SMILES: CC[C@H](C)[C@H](NC(C)=O)C(=O)N[C@H](C(=O)N[C@@H](CC(C)C)C(=O)N[C@@H](CO)C(=O)N[C@@H](CC(C)C)C(=O)N[C@@H](CC(=O)O)C(=O)N[C@@H](C(=O)N1CCC[C@H]1C(=O)N[C@H](C(=O)N[C@@H](CCCCN)C(=O)N[C@@H](CC(C)C)C(=O)N[C@@H](CCCCNC(=O)COCCOCCNC(=O)COCCOCCNC(=O)CC[C@H](NC(=O)CCCCCCCCCCCCCCCCC(=O)O)C(=O)O)C(=O)N[C@@H](CCC(N)=O)C(=O)N[C@H](C(=O)N[C@@H](CC(C)C)C(=O)N[C@@H](CC(C)C)C(=O)N[C@@H](CCC(=O)O)C(=O)N[C@@H](CCC(N)=O)C(=O)N[C@@H](C)C(=O)N[C@@H](CCCNC(=N)N)C(=O)N[C@@H](CCC(N)=O)C(=O)N[C@@H](CCCCN)C(=O)NC(C)(C)C(=O)N[C@@H](CCC(N)=O)C(=O)N[C@@H](CCCNC(=N)N)C(=O)N[C@@H](CCC(=O)O)C(=O)N[C@@H](CCC(N)=O)C(=O)N[C@@H](C)C(=O)N[C@@H](CCC(=O)O)C(=O)N[C@@H](CCCCN)C(=O)N[C@@H](CC(N)=O)C(=O)N[C@@H](CCCCN)C(=O)N[C@@H](CCC(N)=O)C(=O)N[C@H](C(=O)N[C@@H](CC(C)C)C(=O)N[C@@H](CCC(=O)O)C(=O)N[C@@H](CCC(N)=O)C(=O)N[C@H](C(N)=O)C(C)C)[C@@H](C)CC)[C@@H](C)CC)[C@@H](C)CC)C(C)C)C(C)C
Turning to B2, the EC50 [nM], 0% HSA was 0.12 nM and the EC50 [nM], 0.1% HSA was found to be 2.53 nM.

B3: SEQ ID NO: 160 (peptide)
peptide: Ac-IVLSLD[dV]PIKLK([AEEA-AEEA-γGlu-C18 diacid])QILLEQERQE[Aib]EREQAETNKQILEQV-NH2
SMILES: CC[C@H](C)[C@H](NC(C)=O)C(=O)N[C@H](C(=O)N[C@@H](CC(C)C)C(=O)N[C@@H](CO)C(=O)N[C@@H](CC(C)C)C(=O)N[C@@H](CC(=O)O)C(=O)N[C@@H](C(=O)N1CCC[C@H]1C(=O)N[C@H](C(=O)N[C@@H](CCCCN)C(=O)N[C@@H](CC(C)C)C(=O)N[C@@H](CCCCNC(=O)COCCOCCNC(=O)COCCOCCNC(=O)CC[C@H](NC(=O)CCCCCCCCCCCCCCCCC(=O)O)C(=O)O)C(=O)N[C@@H](CCC(N)=O)C(=O)N[C@H](C(=O)N[C@@H](CC(C)C)C(=O)N[C@@H](CC(C)C)C(=O)N[C@@H](CCC(=O)O)C(=O)N[C@@H](CCC(N)=O)C(=O)N[C@@H](CCC(=O)O)C(=O)N[C@@H](CCCNC(=N)N)C(=O)N[C@@H](CCC(N)=O)C(=O)N[C@@H](CCC(=O)O)C(=O)NC(C)(C)C(=O)N[C@@H](CCC(=O)O)C(=O)N[C@@H](CCCNC(=N)N)C(=O)N[C@@H](CCC(=O)O)C(=O)N[C@@H](CCC(N)=O)C(=O)N[C@@H](C)C(=O)N[C@@H](CCC(=O)O)C(=O)N[C@H](C(=O)N[C@@H](CC(N)=O)C(=O)N[C@@H](CCCCN)C(=O)N[C@@H](CCC(N)=O)C(=O)N[C@H](C(=O)N[C@@H](CC(C)C)C(=O)N[C@@H](CCC(=O)O)C(=O)N[C@@H](CCC(N)=O)C(=O)N[C@H](C(N)=O)C(C)C)[C@@H](C)CC)[C@@H](C)O)[C@@H](C)CC)[C@@H](C)CC)C(C)C)C(C)C
With B3, the EC50 [nM], 0% HSA is 8.56 nM and the EC50 [nM], 0.1% HSA worked out at 28.9 nM.

B4: SEQ ID NO: 161 (peptide)
peptide: Ac-IVLSLD[dV]PIKLK([AEEA-AEEA-γGlu-C18 diacid])QILLEQERQE[Aib]EREQAEKNEQILEQV-NH2
SMILES: CC[C@H](C)[C@H](NC(C)=O)C(=O)N[C@H](C(=O)N[C@@H](CC(C)C)C(=O)N[C@@H](CO)C(=O)N[C@@H](CC(C)C)C(=O)N[C@@H](CC(=O)O)C(=O)N[C@@H](C(=O)N1CCC[C@H]1C(=O)N[C@H](C(=O)N[C@@H](CCCCN)C(=O)N[C@@H](CC(C)C)C(=O)N[C@@H](CCCCNC(=O)COCCOCCNC(=O)COCCOCCNC(=O)CC[C@H](NC(=O)CCCCCCCCCCCCCCCCC(=O)O)C(=O)O)C(=O)N[C@@H](CCC(N)=O)C(=O)N[C@H](C(=O)N[C@@H](CC(C)C)C(=O)N[C@@H](CC(C)C)C(=O)N[C@@H](CCC(=O)O)C(=O)N[C@@H](CCC(N)=O)C(=O)N[C@@H](CCC(=O)O)C(=O)N[C@@H](CCCNC(=N)N)C(=O)N[C@@H](CCC(N)=O)C(=O)N[C@@H](CCC(=O)O)C(=O)NC(C)(C)C(=O)N[C@@H](CCC(=O)O)C(=O)N[C@@H](CCCNC(=N)N)C(=O)N[C@@H](CCC(=O)O)C(=O)N[C@@H](CCC(N)=O)C(=O)N[C@@H](C)C(=O)N[C@@H](CCC(=O)O)C(=O)N[C@@H](CCCCN)C(=O)N[C@@H](CC(N)=O)C(=O)N[C@@H](CCC(=O)O)C(=O)N[C@@H](CCC(N)=O)C(=O)N[C@H](C(=O)N[C@@H](CC(C)C)C(=O)N[C@@H](CCC(=O)O)C(=O)N[C@@H](CCC(N)=O)C(=O)N[C@H](C(N)=O)C(C)C)[C@@H](C)CC)[C@@H](C)CC)[C@@H](C)CC)C(C)C)C(C)C
As for B4, the EC50 [nM], 0% HSA is 36 nM and the EC50 [nM], 0.1% HSA worked out at 977 nM.

B5: SEQ ID NO: 18 (peptide)
peptide: IVLSLD[dV]PTKLK([γGlu-Palmitoyl])QKLLKQERQRKEREQAEKNKRILERV-NH2
modifications: N-terminus assumed
SMILES: CCCCCCCCCCCCCCCC(=O)N[C@@H](CCC(=O)NCCCC[C@H](NC(=O)[C@H](CC(C)C)NC(=O)[C@H](CCCCN)NC(=O)[C@@H](NC(=O)[C@@H]1CCCN1C(=O)[C@H](NC(=O)[C@H](CC(=O)O)NC(=O)[C@H](CC(C)C)NC(=O)[C@H](CO)NC(=O)[C@H](CC(C)C)NC(=O)[C@@H](NC(=O)[C@@H](N)[C@@H](C)CC)C(C)C)C(C)C)[C@@H](C)O)C(=O)N[C@@H](CCC(N)=O)C(=O)N[C@@H](CCCCN)C(=O)N[C@@H](CC(C)C)C(=O)N[C@@H](CC(C)C)C(=O)N[C@@H](CCCCN)C(=O)N[C@@H](CCC(N)=O)C(=O)N[C@@H](CCC(=O)O)C(=O)N[C@@H](CCCNC(=N)N)C(=O)N[C@@H](CCC(N)=O)C(=O)N[C@@H](CCCNC(=N)N)C(=O)N[C@@H](CCCCN)C(=O)N[C@@H](CCC(=O)O)C(=O)N[C@@H](CCCNC(=N)N)C(=O)N[C@@H](CCC(=O)O)C(=O)N[C@@H](CCC(N)=O)C(=O)N[C@@H](C)C(=O)N[C@@H](CCC(=O)O)C(=O)N[C@@H](CCCCN)C(=O)N[C@@H](CC(N)=O)C(=O)N[C@@H](CCCCN)C(=O)N[C@@H](CCCNC(=N)N)C(=O)N[C@H](C(=O)N[C@@H](CC(C)C)C(=O)N[C@@H](CCC(=O)O)C(=O)N[C@@H](CCCNC(=N)N)C(=O)N[C@H](C(N)=O)C(C)C)[C@@H](C)CC)C(=O)O
As for B5, the EC50 [nM], 0% HSA worked out at 0.03 nM.

B6: SEQ ID NO: 158 (peptide)
peptide: Ac-IVLSLD[dV]PIKLK([AEEA-AEEA-γGlu-C18 diacid])QILLEQERQK[Aib]QREQAEKNKQILEQV-NH2
SMILES: CC[C@H](C)[C@H](NC(C)=O)C(=O)N[C@H](C(=O)N[C@@H](CC(C)C)C(=O)N[C@@H](CO)C(=O)N[C@@H](CC(C)C)C(=O)N[C@@H](CC(=O)O)C(=O)N[C@@H](C(=O)N1CCC[C@H]1C(=O)N[C@H](C(=O)N[C@@H](CCCCN)C(=O)N[C@@H](CC(C)C)C(=O)N[C@@H](CCCCNC(=O)COCCOCCNC(=O)COCCOCCNC(=O)CC[C@H](NC(=O)CCCCCCCCCCCCCCCCC(=O)O)C(=O)O)C(=O)N[C@@H](CCC(N)=O)C(=O)N[C@H](C(=O)N[C@@H](CC(C)C)C(=O)N[C@@H](CC(C)C)C(=O)N[C@@H](CCC(=O)O)C(=O)N[C@@H](CCC(N)=O)C(=O)N[C@@H](CCC(=O)O)C(=O)N[C@@H](CCCNC(=N)N)C(=O)N[C@@H](CCC(N)=O)C(=O)N[C@@H](CCCCN)C(=O)NC(C)(C)C(=O)N[C@@H](CCC(N)=O)C(=O)N[C@@H](CCCNC(=N)N)C(=O)N[C@@H](CCC(=O)O)C(=O)N[C@@H](CCC(N)=O)C(=O)N[C@@H](C)C(=O)N[C@@H](CCC(=O)O)C(=O)N[C@@H](CCCCN)C(=O)N[C@@H](CC(N)=O)C(=O)N[C@@H](CCCCN)C(=O)N[C@@H](CCC(N)=O)C(=O)N[C@H](C(=O)N[C@@H](CC(C)C)C(=O)N[C@@H](CCC(=O)O)C(=O)N[C@@H](CCC(N)=O)C(=O)N[C@H](C(N)=O)C(C)C)[C@@H](C)CC)[C@@H](C)CC)[C@@H](C)CC)C(C)C)C(C)C
Molecule B6 registered an EC50 [nM], 0% HSA of 0.42 nM and an EC50 [nM], 0.1% HSA of 5.63 nM.
